Source: the Human Domainome abundance scans (Beltran et al. 2025)

B1: Homeobox protein cut-like 1, residues 941 to 1008; numbered along this chain, P39880 (parent)
chain: QEVDTIELTRQVKEKLAKNGICQRIFGEKVLGLSQGSVSDMLSRPKPWSKLTQKGREPFIRMQLWLNG

Variants of: B1
Experiment: abundance fitness (aPCA) (normalised: wild type 0, dead -1); higher = more abundant; growth selection in yeast, the domain comes from the species named
Conditions: Homo sapiens

Abundance fitness, by site and new letter:
G55: I 0.093 | L -0.045 | P -0.517 | K -0.163 | A 0.016 | N -0.792 | T -0.162 | H -0.132 | F 0.042 | R -0.38 | M -0.018 | Y -0.104 | C -0.17 | W -0.189 | V -0.01 | D 0.084 | Q 0.033 | E 0.17
R61: H -0.393 | C -0.277 | I -0.706 | E -0.479 | A -0.183 | G -0.582 | F -0.991
P45: H -0.124 | E -0.526 | T -0.224 | F -0.161 | N -0.227 | C -0.123 | K -0.161 | Q -0.461 | R -0.184 | M -0.269 | Y -0.282 | A -0.233 | L -0.202 | W -0.108 | I -0.147 | S -0.063 | D -0.456 | V -0.139 | G -0.309
K46: R -0.099 | T -0.205 | L -0.07 | S 0.009 | N -0.461 | W -0.285 | Y -0.059 | G -0.315 | E -0.013 | F -0.227 | A -0.075 | M -0.15 | C -0.369 | P 0.112 | I -0.184 | V -0.112 | Q -0.041
L51: A -0.723 | C -0.439 | R -0.93 | M -0.125 | G -1.04 | E -0.929 | P -1.07 | I -0.113 | Y -0.474 | S -0.92 | T -0.745 | Q -0.969 | V -0.394 | W -0.08
Q53: M -0.095 | F -0.217 | D 0.032 | P 0.031 | S -0.022 | I -0.119 | E -0.139 | R -0.053 | N -0.045 | Y -0.27 | K 0.076 | W -0.173 | V -0.095 | G -0.132 | C 0.012 | T -0.014 | H -0.179 | L -0.082
K50: E 0.022 | T -0.059 | D 0.041 | C -0.07 | A -0.098 | F -0.141 | Q 0.028 | M -0.012 | H -0.184 | S -0.04 | N -0.221 | W -0.247 | G -0.194 | V -0.066 | L -0.104 | Y -0.138
P47: D -0.158 | C -0.086 | V -0.079 | Y -0.25 | K -0.029 | W 0.056 | F -0.012 | L -0.029 | I -0.286 | S -0.086 | G -0.123 | N -0.371 | A -0.084 | M -0.12 | E -0.067 | R -0.134 | Q -0.068 | H -0.133
S49: Y -0.255 | K 0.029 | P -0.231 | G -0.133 | C -0.237 | I -0.43 | Q -0.169 | E -0.151 | A -0.072 | M -0.346 | F -0.19 | H 0.025 | T -0.131 | V -0.177 | D -0.241 | R -0.011 | W -0.198
R44: I -0.189 | C -0.007 | Q -0.241 | V -0.175 | E -0.176 | G -0.118 | K 0.098 | D 0.12 | A 0 | P -0.314 | N 0.054 | Y -0.029 | H -0.125 | F -0.041
R56: A -0.479 | K -0.045 | N -1.16 | D -1.13 | L -0.418 | M -0.238 | P -1.06 | W -0.456 | V -0.39 | T -0.373 | S -0.598 | F -0.659 | I -0.6 | E -1.2 | H -0.676 | Y -0.444 | C -0.525 | Q -0.287
S43: L -0.139 | V -0.064 | C -0.153 | Y -0.174 | P -0.304 | E 0.014 | N 0.066 | M 0.079 | T -0.01 | G -0.251 | W -0.407 | R -0.125 | H 0.049 | Q 0.029 | K -0.028 | F -0.373 | A 0.007 | I -0.187
L42: R -0.224 | A -0.324 | G -0.275 | Y -0.481 | V -0.264 | M -0.215 | P -0.117 | W -0.134 | Q -0.376 | K -0.04 | D -0.393 | T -0.424 | N -0.405 | F -0.158 | E -0.281 | S -0.236 | H -0.184 | I -0.171
K54: P -0.439 | Y -0.431 | H -0.111 | I -0.192 | A 0.011 | D -0.098 | Q -0.107 | V -0.346 | M -0.263 | F -0.199 | W -0.327 | T -0.101 | G -0.223 | L -0.174 | N -0.319 | E 0.159 | R -0.074 | C -0.317
W48: A -0.904 | I -1 | G -0.919 | Q -0.867 | S -0.817 | Y -0.78 | H -1.11 | E -0.774 | P -0.999 | D -1.08 | V -0.672 | R -0.729 | M -0.65 | T -1.1 | N -1.46 | F -0.311 | L -0.398
E57: A -0.046 | H -0.213 | G -0.126 | L -0.194 | M -0.203 | T -0.15 | I -0.097 | K -0.091 | P -0.744 | F -0.294 | V -0.192 | Y -0.453 | Q -0.147 | D -0.162 | N -0.055 | S -0.192 | W -0.148 | R -0.223
M41: W 0.022 | Y -0.011
F59: N -1.2 | C -0.817 | M -0.568 | I -0.525 | R -0.7 | P -0.833 | V -0.761 | E -0.431 | W -0.128 | A -0.813 | T -0.686 | S -0.995 | Q -1.13 | H -1.18 | Y -0.006 | K -0.954 | G -1.17
P58: G -0.201 | L 0.109 | K -0.04 | N 0.025 | H -0.135 | Q -0.036 | A -0.102 | R -0.049 | I 0.117 | Y -0.1 | S -0.093 | D -0.13 | T 0.052 | F 0.006 | C 0.099 | V -0.014 | W -0.007
T52: H -0.394 | I -0.009 | M -0.157 | P -0.343 | S 0.085 | G -0.216 | L -0.018 | Y -0.143 | N -0.009 | E -0.343 | A -0.033 | C -0.111 | F -0.187 | Q -0.22 | K -0.109
I60: V 0.025 | E -0.152 | P -0.911 | C -0.139 | S -0.141 | Q -0.142 | T -0.008 | F -0.205 | R 0.071 | Y 0.004 | D -0.29 | M -0.054 | L -0.015 | K 0.013 | W -0.334 | N -0.051 | A -0.073 | G -0.383
